Data taken from PMC2923608, “Structural Insights into the Quinolone Resistance Mechanism of Mycobacterium tuberculosis DNA Gyrase” (PLoS ONE, 2010).

B1: breakage-reunion domain of DNA gyrase subunit A from M. tuberculosis (GA57BK) (domain or fragment)
chain: MTDTTLPPDDSLDRIEPVDIEQEMQRSYIDYAMSVIVGRALPEVRDGLKPVHRRVLYAMFDSGFRPDRSHAKSARSVAETMGNYHPHGDASIYDSLVRMAQPWSLRYPLVDGQGNFGSPGNDPPAAMRYTEARLTPLAMEMLREIDEETVDFIPNYDGRVQEPTVLPSRFPNLLANGSGGIAVGMATNIPPHNLRELADAVFWALENHDADEEETLAAVMGRVKGPDFPTAGLIVGSQGTADAYKTGRGSIRMRGVVEVEEDSRGRTSLVITELPYQVNHDNFITSIAEQVRDGKLAGISNIEDQSSDRVGLRIVIEIKRDAVAKVVINNLYKHTQLQTSFGANMLAIVDGVPRTLRLDQLIRYYVDHQLDVIVRRTTYRLRKANERAHILRGLVKALDALDEVIALIRASETVDIARAGLIELLDIDEIQAQAILDMQLRRLAALERQRIIDDLAKIEAEIADLEDILAKPERQRGIVRDELAEIVDRHGDDRRTRIIAAD
notes: DNA gyrase subunit A (GyrA), Mycobacterium tuberculosis, breakage-reunion domain, residues 1-502, 57 kDa; also called entire N-terminal GyrA domain
B2: Toprim domain of DNA gyrase subunit B from Mycobacterium tuberculosis (TopBK) (domain or fragment)
chain: TDPRKSELYVVEGDSAGGSAKSGRDSMFQAILPLRGKIINVEKARIDRVLKNTEVQAIITALGTGIHDEFDIGKLRYHKIVLMADADVDGQHISTLLLTLLFRFMRPLIENGHVFLAQPPLYKLKWQRSDPEFAYSDRERDGLLEAGLKAGKKINKEDGIQRYKGLGEMDAKELWETTMDPSVRVLRQVTLDDAAAADELFSILMGEDVDARRSFITRNAKDVRFLDV
notes: DNA gyrase subunit B (GyrB), Mycobacterium tuberculosis, Toprim domain; the methods give residues 448-675, the results give 448-654 (the crystal model runs from T448 to E654); also called C-terminal GyrB domain

What was measured:
[1] = target: the molecule itself; test: AUC; sedimentation velocity, 20°C, 42000 rpm, 20 mM Tris pH 8; GA57BK at 1 mg/ml (17.5 µM)
[2] = target: the molecule itself; test: AUC; sedimentation velocity, 20°C, 42000 rpm, 20 mM Tris pH 8; TopBK at 0.5, 1 and 4 mg/ml (18, 37 and 148 µM); the result is told for the concentration corresponding to the crystallization conditions; monomer and dimer

Protein	stoichiometry N [1]	stoichiometry N [2]
B1	2	–
B2	–	2
